Like-named read-outs stand apart in the source and are kept apart here.
Assays:
[1] = target: HLA-A*0203 (human); assay: competition with 125I standard peptide for purified HLA; gel filtration
[2] = target: HLA-A*0206 (human); assay: as above
[3] = target: HLA-A*1101 (human); assay: competition with 125I-labelled standard peptide for purified HLA-A*1101, gel filtration
[4] = target: HLA-A*0202 (human); assay: competitive inhibition of 125I-labelled standard peptide binding to purified HLA, gel filtration
[5] = target: HLA-A*0201 (human); assay: as above
[6] = target: HLA-A*0206 (human); assay: as above
[7] = target: HLA-A*0203 (human); assay: as above
[8] = target: HLA-A*0203 (human); assay: inhibition of 125I-labelled probe peptide binding to purified HLA; gel filtration
[9] = target: HLA-A*0201 (human); assay: as above
[10] = target: HLA-A*0206 (human); assay: as above; conditions: remark: other sources report otherwise
[11] = target: HLA-A*0301 (human); assay: competition with radiolabeled standard peptide on purified HLA-A*0301, gel filtration; conditions: scale: ratio
[12] = target: HLA-A*0202 (human); assay: inhibition of 125I-labelled probe peptide binding to purified HLA; gel filtration
[13] = target: HLA-A*1101 (human); assay: competition with a 125I-labelled standard peptide for purified HLA-A*1101, gel filtration; conditions: scale: ratio
[14] = target: HLA-A*0202 (human); assay: inhibition of 125I-labelled probe peptide binding to purified HLA, gel filtration
[15] = target: HLA-A*0203 (human); assay: as above
[16] = target: HLA-A*0201 (human); assay: as above
[17] = target: HLA-A*6802 (human); assay: as above
[18] = target: HLA-A*0206 (human); assay: as above
[19] = target: HLA-A*0301 (human); assay: competition with 125I-labeled standard peptide for purified HLA-A*0301, gel filtration
[20] = target: HLA-A*0301 (human); assay: competition with 125I-labelled standard peptide on purified HLA-A*0301, gel filtration
[21] = target: HLA-A*0203 (human); assay: competitive inhibition of 125I-labelled standard peptide binding to purified HLA, gel filtration; ratio = IC50 standard / IC50 test peptide; conditions: remark: other sources report otherwise
[22] = target: HLA-A*0201 (human); assay: as above; conditions: remark: other sources report otherwise
[23] = target: HLA-A*0202 (human); assay: competition with 125I standard peptide for purified HLA; gel filtration
[24] = target: HLA-A*0201 (human); assay: as above
[25] = target: HLA-A*0201 (human); assay: competition with 125I-labelled standard peptide 941.01 for purified HLA-A*0201, gel filtration
[26] = target: HLA-A*0206 (human); assay: competition with 125I-labelled standard peptide 941.01 for purified HLA-A*0206, gel filtration
[27] = target: HLA-A*0202 (human); assay: competition with 125I-labelled standard peptide 941.01 for purified HLA-A*0202, gel filtration
[28] = target: HLA-A*0301 (human); assay: competition with 125I-labelled standard peptide for purified HLA-A*0301, gel filtration; ratio to the A*0301 standard peptide 941.12 [..] (11 nM)
[29] = target: HLA-A*6802 (human); assay: inhibition of 125I-labelled probe peptide binding to purified HLA; gel filtration
[30] = remark: other sources report otherwise

LTFFWLDRSV (modifications not checked) [Peptide 1418.23 … (PAP.21.T2)]
IC50 [1]: 9.6 nM | IC50 [2]: 43 nM

TAAHCIRNK (modifications not checked) [PSA 58 …]
binding affinity ratio (IC50 of standard peptide / IC50 of test peptide) [3, 30]: 0.014

ITSWGPEPCA (modifications not checked) [… (Kallikrein, position 226)]
binding affinity ratio (ratio to standard peptide) [4, 30]: 0.01 | binding affinity ratio (ratio to standard peptide) [5, 30]: 0.0003 | binding affinity ratio (ratio to standard peptide) [6, 30]: 0.0005

ITSWGSEPCAL (modifications not checked)
binding affinity ratio (ratio to standard peptide) [4, 30]: 0.012 | binding affinity ratio (ratio to standard peptide) [7, 30]: 0.0096 | binding affinity ratio (ratio to standard peptide) [5, 30]: 0.001 | binding affinity ratio (ratio to standard peptide) [6, 30]: 0.0001

ALFPPEGVSI (modifications not checked) [peptide 1419.6 (PAP.122)]
IC50 [8, 30]: 133 nM | IC50 [9, 30]: 278 nM | IC50 [10]: 2640 nM

WATEDTMTK (modifications not checked) [PAP 226 peptide …]
binding affinity ratio [11]: 0.0006

PLLLWQPIPV (modifications not checked) [peptide 63.0042 (PAP.134.L2)]
IC50 [12, 30]: 47 nM | IC50 [9, 30]: 238 nM | IC50 [10]: 336 nM

GMPEGDLVY (modifications not checked) [PSM 168 peptide …]
binding affinity ratio (IC50 of the standard peptide / IC50 of the test peptide) [3]: 0.0002

DTFPTDPIK (modifications not checked) [PAP 51 peptide …]
binding affinity ratio [13]: 0.0001

SLHLLSNDMCV (modifications not checked) [Peptide 1418.66 (HuK2.175.V11) …]
IC50 [14, 30]: 0.8 nM | IC50 [15, 30]: 10 nM | IC50 [16, 30]: 8.6 nM | IC50 [17, 30]: 2160 nM | IC50 [18, 30]: 2310 nM

NLLHETDSA (modifications not checked) [… (PSM, position 3, 9 amino acids)]
binding affinity ratio (IC50 of standard peptide / IC50 of test peptide) [19]: 0.0006

ITSWGSEPCA (modifications not checked)
binding affinity ratio (ratio to standard peptide) [4]: 0.0036 | binding affinity ratio (ratio to standard peptide) [7]: 0.003 | binding affinity ratio (ratio to standard peptide) [5]: 0.0003 | binding affinity ratio (ratio to standard peptide) [6]: 0.0001

EIASKFSER (modifications not checked) [PSM 641 peptide …]
binding affinity ratio [13]: 0.0002

LSLLSLYGIH (modifications not checked) [… (PAP, position 241)]
binding affinity ratio (IC50 of standard peptide / IC50 of test peptide) [20]: 0.0003

VLPFDCRDYA (modifications not checked) [PSM 592 peptide …]
binding affinity ratio [11]: 0.0005

FMLCAGLWV (modifications not checked) [Peptide 1418.22 … (HuK2.195.V9)]
IC50 [2, 30]: 51 nM

NFTEIASKF (modifications not checked) [… (PSM, position 638, 9 amino acids)]
binding affinity ratio (IC50 of standard peptide / IC50 of test peptide) [19]: 0.0005

VTKFMLCAGR (modifications not checked) [PSA 188 peptide …]
binding affinity ratio [11, 30]: 0.0003

SLQCVSLHLL (modifications not checked) [Peptide 1419.66 (HuK2.170) …]
IC50 [14, 30]: 4.9 nM | IC50 [16, 30]: 263 nM | IC50 [17, 30]: 5000 nM | IC50 [18, 30]: 446 nM

DVLLSYPNK (modifications not checked) [PSM 114 peptide …]
binding affinity ratio [13]: 0.001

ITDVVKVL (modifications not checked) [ITDVVKVL (Kallikrein, position 132)]
binding affinity ratio (ratio to standard peptide) [4]: 0.001 | binding affinity ratio (ratio to standard peptide) [7]: 0.0001 | binding affinity ratio (ratio to standard peptide) [5]: 0.0001 | binding affinity ratio (ratio to standard peptide) [6]: -0.0001

GVSIWNPIV (modifications not checked) [peptide 60.0207 (PAP.128.V9)]
IC50 [12, 30]: 269 nM | IC50 [8, 30]: 909 nM | IC50 [9, 30]: 455 nM

TGQVFQVSH (modifications not checked) [PSA 82 …]
binding affinity ratio (IC50 of standard peptide / IC50 of test peptide) [3]: 0.0002

ALDVYNGLL (modifications not checked) [peptide 1177.02 (PAP.299)]
IC50 [8, 30]: 256 nM | IC50 [9, 30]: 73 nM

TLVFRHGDR (modifications not checked) [PAP 39 …]
binding affinity ratio (IC50 of standard peptide / IC50 of test peptide) [3]: 0.0002

HLLSNDMCARV (modifications not checked) [Peptide 1418.67 (HuK2.177.V11) …]
IC50 [14, 30]: 1.3 nM | IC50 [15, 30]: 5.3 nM | IC50 [17, 30]: 860 nM | IC50 [18, 30]: 37 nM

VLSIALSV (modifications not checked) [VLSIALSV (Kallikrein, position 5)]
binding affinity ratio [21]: 0.02 | binding affinity ratio [22]: 0.005

VLTAAHCIR (modifications not checked) [PSA 56 peptide …]
binding affinity ratio [11]: 0.0002

SLSLGFLFLV (modifications not checked) [Peptide 1419.52 … (PAP.13.V10)]
IC50 [23]: 3.9 nM | IC50 [1]: 17 nM | IC50 [24]: 1.8 nM | IC50 [2]: 42 nM

SIALSVGCT (modifications not checked) [… (Kallikrein, position 7)]
binding affinity ratio (IC50 of standard peptide / IC50 of test peptide) [25]: -0.0001 | binding affinity ratio (IC50 of standard peptide / IC50 of test peptide) [26]: 0.0006 | binding affinity ratio (IC50 of standard peptide / IC50 of test peptide) [27]: 0.0006

SLQCVSLHL (modifications not checked) [Peptide 60.0191 (HuK2.170) …]
IC50 [14, 30]: 51 nM | IC50 [15, 30]: 417 nM | IC50 [16, 30]: 500 nM | IC50 [17, 30]: 2580 nM

MSLLKNRFLR (modifications not checked) [… (PSA, position 99, 10 amino acids)]
binding affinity ratio (IC50 of standard peptide / IC50 of test peptide) [19]: 0.007

DMSLLKNR (modifications not checked) [PSA 98 peptide DMSLLKNR]
binding affinity ratio [13]: 0.0001 | binding affinity ratio (IC50 of standard peptide / IC50 of test peptide) [28]: 0.0003

SLQCVSLHLV (modifications not checked) [Peptide 1418.52 (HuK2.170.V10) …]
IC50 [14]: 6.3 nM | IC50 [15]: 2.8 nM | IC50 [16]: 13 nM | IC50 [17]: 205 nM | IC50 [18]: 5.2 nM

LVFRHGDR (modifications not checked) [LVFRHGDR (PAP, position 40, 8 amino acids)]
binding affinity ratio (IC50 of standard peptide / IC50 of test peptide) [19]: 0.0003

KLRELSELSV (modifications not checked) [peptide 63.0048 (PAP.234.V10)]
IC50 [9, 30]: 263 nM | IC50 [29, 30]: 1820 nM

TLRGAVEPDR (modifications not checked) [PSM 361 …]
binding affinity ratio (IC50 of standard peptide / IC50 of test peptide) [3]: 0.0002

DIESKVDPSK (modifications not checked) [PSM 714 peptide …]
binding affinity ratio [13]: 0.0002 | binding affinity ratio (IC50 of standard peptide / IC50 of test peptide) [28]: 0.0003

LLWQPIPVHV (modifications not checked) [peptide 1419.69 (PAP.136.V10)]
IC50 [12]: 1.8 nM | IC50 [8]: 17 nM | IC50 [9]: 25 nM | IC50 [29]: 60 nM
